Measured values as given in patent EP1207201A1, “NOVEL G PROTEIN-COUPLED RECEPTOR PROTEIN AND DNA THEREOF” (Takeda Chemical Industries, Ltd., priority 1999, dated 2001).
Where no end group is shown, it is not given here.

Target: T1, AQ27 (Homo sapiens, UniProt Q96P65)
T1 construct: expressed in transfected cells; host or cells: CHO cells
T1 sequence (Q96P65 1-431): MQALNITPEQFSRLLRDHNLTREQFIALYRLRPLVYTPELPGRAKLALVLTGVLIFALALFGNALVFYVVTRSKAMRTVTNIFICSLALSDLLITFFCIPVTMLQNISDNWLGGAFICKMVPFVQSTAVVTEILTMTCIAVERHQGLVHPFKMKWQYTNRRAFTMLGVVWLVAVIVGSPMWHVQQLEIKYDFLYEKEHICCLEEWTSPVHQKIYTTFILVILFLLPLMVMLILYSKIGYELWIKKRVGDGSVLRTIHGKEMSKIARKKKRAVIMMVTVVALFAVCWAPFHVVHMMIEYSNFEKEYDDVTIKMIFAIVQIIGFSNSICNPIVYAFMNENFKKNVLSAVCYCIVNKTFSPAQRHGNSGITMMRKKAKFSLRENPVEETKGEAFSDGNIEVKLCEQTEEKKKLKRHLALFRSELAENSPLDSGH
Assay: Cytosensor cell activation (increase of acidification rate) in AQ27-expressing CHO cells versus mock cells
Type: cell-based
Details: 10 µM, exposure 7 minutes and 2 seconds, AQ27-expressing CHO cells compared with mock cells
Method: The vertical axis represents a cycle of measurement. "•" denotes the reactivity of receptor-expressed CHO cells and "○" denotes the reactivity of mock cells.
The AQ27-expressing CHO cells and mock cells were inoculated in a capsule for Cytosensor at a concentration of 2.7 x 10^5 cells/capsule, respectively, incuvated overnight, and mounted onto Cytosensor(Molecular Device). After the acidification rare became stable, the cells were exposed to 10 µM Enkephalin-Arg-Phe amide (Bachem, H-2835) for 7 minutes and 2 seconds. The cell activation was measured using the increasing rate of the acidification rate as index.

For “Met-Enkephalin-Arg-Phe amide (YGGFMRF-NH2) [peptide amide purchased from Bachem, H-2835]”, the “cell activation measured using the increasing rate of the acidification rate as index” value was “specifically activates the AQ27-expressing CHO cells”.
